Paper PMC5712522 (Nature Communications, 2017)

Biological target: the molecule itself
Test: SEC-MALS; Shodex KW404-4F column; 50 μg of protein; PBS pH 7.2

B1: LIMP-2 luminal domain H150A (domain or fragment, UniProt Q14108 28-431, looked up)
chain: VFQKAVDQSIEKKIVLRNGTEAFDSWEKPPLPVYTQFYFFNVTNPEEILRGETPRVEEVGPYTYRELRNKANIQFGDNGTTISAVSNKAYVFERDQSVGDPKIDLIRTLNIPVLTVIEWSQVAFLREIIEAMLKAYQQKLFVTHTVDELLWGYKDEILSLIHVFRPDISPYFGLFYEKNGTNDGDYVFLTGEDSYLNFTKIVEWNGKTSLDWWITDKCNMINGTDGDSFHPLITKDEVLYVFPSDFCRSVYITFSDYESVQGLPAFRYKVPAEILANTSDNAGFCIPEGNCLGSGVLNVSICKNGAPIIMSFPHFYQADERFVSAIEGMHPNQEDHETFVDINPLTGIILKAAKRFQINIYVKKLDDFVETGDIRTMVFPVMYLNESVHIDKETASRLKSMINT
notes: LIMP-2 (SCARB2), soluble luminal domain, residues 28–431, with H150A; also called dimerization-deficient mutant; source: Expi293F (HEK), purified in the same manner as the wild-type protein
binding result: binds

B2: LIMP-2 luminal domain H150A/F151D (domain or fragment, UniProt Q14108 28-431, looked up)
chain: VFQKAVDQSIEKKIVLRNGTEAFDSWEKPPLPVYTQFYFFNVTNPEEILRGETPRVEEVGPYTYRELRNKANIQFGDNGTTISAVSNKAYVFERDQSVGDPKIDLIRTLNIPVLTVIEWSQVADLREIIEAMLKAYQQKLFVTHTVDELLWGYKDEILSLIHVFRPDISPYFGLFYEKNGTNDGDYVFLTGEDSYLNFTKIVEWNGKTSLDWWITDKCNMINGTDGDSFHPLITKDEVLYVFPSDFCRSVYITFSDYESVQGLPAFRYKVPAEILANTSDNAGFCIPEGNCLGSGVLNVSICKNGAPIIMSFPHFYQADERFVSAIEGMHPNQEDHETFVDINPLTGIILKAAKRFQINIYVKKLDDFVETGDIRTMVFPVMYLNESVHIDKETASRLKSMINT
notes: LIMP-2 (SCARB2), soluble luminal domain, residues 28–431, with H150A and F151D; also called dimerization-deficient mutant; source: Expi293F (HEK), purified in the same manner as the wild-type protein
binding result: binds
